In the experiment the target is dimeric human ACE2 fused to Fc domain of human IgG (human) (UniProt Q9BYF1). Briefly: SPR.

We go through one substance from paper doi:10.1101/2021.09.13.460076.

pKd: −log10 of the molar value.

dimeric human ACE2 fused to Fc domain of human IgG (human), sequence (Q9BYF1 18-740): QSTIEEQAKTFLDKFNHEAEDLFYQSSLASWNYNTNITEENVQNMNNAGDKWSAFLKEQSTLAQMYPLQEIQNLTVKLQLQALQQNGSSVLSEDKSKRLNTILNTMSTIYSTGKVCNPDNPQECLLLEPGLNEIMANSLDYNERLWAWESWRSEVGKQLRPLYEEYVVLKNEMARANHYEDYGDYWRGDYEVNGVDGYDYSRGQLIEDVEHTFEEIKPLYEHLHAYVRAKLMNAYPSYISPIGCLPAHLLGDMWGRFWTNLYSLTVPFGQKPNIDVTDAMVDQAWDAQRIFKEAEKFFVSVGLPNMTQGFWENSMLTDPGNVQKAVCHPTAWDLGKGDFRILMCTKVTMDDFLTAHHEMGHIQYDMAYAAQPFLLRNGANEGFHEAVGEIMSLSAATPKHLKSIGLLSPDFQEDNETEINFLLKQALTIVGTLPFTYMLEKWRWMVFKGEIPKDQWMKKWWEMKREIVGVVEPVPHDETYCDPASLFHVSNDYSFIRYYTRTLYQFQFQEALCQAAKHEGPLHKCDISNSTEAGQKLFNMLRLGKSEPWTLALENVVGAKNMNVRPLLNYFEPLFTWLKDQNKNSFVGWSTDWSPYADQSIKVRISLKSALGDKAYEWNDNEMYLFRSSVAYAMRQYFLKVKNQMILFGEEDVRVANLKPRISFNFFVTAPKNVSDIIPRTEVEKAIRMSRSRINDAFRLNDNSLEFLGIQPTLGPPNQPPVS

The term pKd denotes −log10 of the Kd, conventionally taken in molar units. The low end stands for a high Kd, the high end for a low Kd. Substance “ADDomer particle decorated with SARS-CoV-2 RBD (ADD-RBD) (from UniProt Q2Y0H9 1-544; P0DTC2 320-554) (complex)” had a pKd of 9.51.
